Tested on: Bacillus subtilis
Experiment: cleaved RNA product abundance (RNA/gDNA barcode ratio) relative to median wild-type variant (ratio to wild type); higher = more accumulation of the downstream cleavage product
How it was run: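 Sequencing of barcodes from gel-selected, reverse-transcribed cleaved RNA and from genomic DNA, with UMI collapsing, yielded a per-construct RNA:gDNA ratio. Scaled to the median construct with the unmutated site, this ratio is the cleaved product abundance. The barcoded reporters (truncated aprE or tetM mRNAs with mutagenized RNase Y cleavage-site windows) were integrated into the B. subtilis chromosome, and cultures grew in LB at 37°C from OD600 0.0003 to 0.3.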

[1] = experiment (reporter, strain, medium): exp 8a: truncated aprE reporter, strain BJT201 with 2% xylose (RNase J1 expressed), cleavage site: glnRA (positions -5 to +31 mutated)
[2] = experiment (reporter, strain, medium): exp 2b: truncated aprE reporter, strain BJT200, cleavage site: cggR-gapA (positions -7 to +36 mutated)
[3] = experiment (reporter, strain, medium): exp 4a: truncated aprE reporter, strain BJT201 with 2% xylose (RNase J1 expressed), cleavage site: cggR-gapA (positions -7 to +36 mutated)

Row | Sequence | cleaved RNA product abundance [1] | cleaved RNA product abundance [2] | cleaved RNA product abundance [3] | further results
1 | CGACATGTCCCGCTTCTTTCATTAATCCGTTAGCAACTGTTTTGCAATATACATTTACCTTTTAAGAGGAGGAAT | 0.436 |  |  | 
2 | CGACATGTCCCGCTTCTTTCATTAATCCGTTAGCAAATGTTATGCTATATACATTTACCTTTTAAGAGGAGGAAT | 0.766 |  |  | 
3 | CGACATGTCCCGCTTCTTTCATTAATCCGTTAGCAACTTTTTTGCAATATACATTTACCTTTTAAGAGGAGGAAT | 0.494 |  |  | 
4 | CGACATGTCCCGCTTCTTTCATTATTCCGTTAGCAACTTTTTTGCTATATACATTTACCTTTTAAGAGGAGGAAT | 2.24 |  |  | 
5 | CGACATGTCCCGCTTCTTTCATTAATCCGTTACCAAGTGTTTTGCTATATACATTTACCTTTTAAGAGGAGGAAT | 0.272 |  |  | 
6 | ACAGACGAAGGAGCCGCAAAGAAGTTATTAAGGGATAAATACTCCCTCAATATAAATATCTCTCACTTATTTAAA |  | 0.674 | 0.534 | 
7 | ACAGACGAAGGAGCCGCAAAGAACTTATTAAGGGATGAATAATCCCTCAATATAAATATTTCTCACTTATTTAAA |  |  | 0.307 | 
8 | CGACATGTCCCGCTTCTTTCATTAATTCGTTAGCAACTGTTTTGATATATACATTTACCTTTTAAGAGGAGGAAT | 0.498 |  |  | 
9 | ACAGACGAAGGAGCCGCAAAGAAATTATTAGGGGATGAATAATCCCTCAATATAAATATCTCTCACTTATTTAAA |  |  | 0.586 | 
10 | CGACATGTCCCGCTTCTTTCATTAATCCGTTAGCAACTGTTTTGTTATATACAGTTACCTTTTAAGAGGAGGAAT | 0.162 |  |  | 
11 | CGACATGTCCCGCTTCTTTCATTAATCCGATAGCAACTCTTTTGCTATATACATTTACCTTTTAAGAGGAGGAAT | 0.19 |  |  | 
12 | CGACATGTCCCGCTTCTTTCATTAATCAATTAGCAACTGTTTTGCTATATACATTTACCTTTTAAGAGGAGGAAT | 0.946 |  |  | 
13 | CGACATGTCCCGCTTCTTTCATTAATCCGTTAGCAACTGTTTTGCTATATGCAATTACCTTTTAAGAGGAGGAAT | 0.289 |  |  | 
14 | ACAGACGAAGGAGCCGCAAAGAAATTATTAAGTGATGAATAATCCCTCAAAATAAATATCTCTCACTTATTTAAA |  | 0.117 | 0.0994 | 
15 | ACAGACGAAGGAGCCGCAAAGAAGTTATTAAGGGATGAATAATCACTCAATATAAATTTCTCTCACTTATTTAAA |  |  | 0.112 | 
16 | CGACATGTCCCGCTTCTTTCATTAATCCGTTATCAACTGTTTTGCTATACACATTTACCTTTTAAGAGGAGGAAT | 0.27 |  |  | 
17 | ACAGACGAAGGAGCCGCAAAGAAGTTATTTAGGGATGAATAATCCTTCAATATAAATATCTCTCACTTATTTAAA |  |  | 0.531 | 
18 | ACAGACGAAGGAGCCGCAAAGAATTTATTAACGGATGAATAATCCCTCAATATAAATATCTCTCACTTATTTAAA |  |  | 0.203 | 
19 | ACAGACGAAGGAGCCGCAAAGGAGTTATTAAGGAATGAATAATCCCTCAATATAAATATCTCTCACTTATTTAAA |  |  | 0.144 | 
20 | ACAGACGAAGGAGCCGCAAAGAAGTTATTAAGAGATGAATAATCCCTCAATGTAAATATCTCTCACTTATTTAAA |  | 0.0969 | 0.0609 | 
21 | ACAGACGAAGGAGCCGCAAAGAAGTTATTAAGGGATGAAGAATTCCTCAATATAAATATCTCTCACTTATTTAAA |  |  | 0.29 | 
22 | ACAGACGAAGGAGCCGCAAAGAAGTTATTAAGGGATGAATAATCCATCAATAAAAATATCTCTCACTTATTTAAA |  | 0.11 | 0.107 | 
23 | ACAGACGAAGGAGCCGCAAACAAGTTATTAAGGGATGAATAATCTCTCAATATAAATATCTCTCACTTATTTAAA |  | 0.529 | 0.573 | 

Row | Sequence | cleaved RNA product abundance [1] | cleaved RNA product abundance [2] | cleaved RNA product abundance [3] | further results
24 | ACAGACGAAGGAGCCGCAAAGAAGTTATTGAGGGATGAATAATCCCTAAATATAAATATCTCTCACTTATTTAAA |  |  | 0.897 | 
25 | ACAGACGAAGGAGCCGCAAAGAAGTTATTAAGGGATGAATAATCCATCAATTTAAATATCTCTCACTTATTTAAA |  |  | 0.13 | 
26 | ACAGACGAAGGAGCCGCAAAGAAGTTATTAAGGGATGAATAATCCCTCAATATAAATTTGTCTCACTTATTTAAA |  | 0.98 |  | 
27 | ACAGACGAAGGAGCCGCAAACAAGTTATTAAGGGATGAATAATACCTCAATATAAATATCTCTCACTTATTTAAA |  | 0.107 | 0.12 | 
28 | ACAGACGAAGGAGCCGCAAAGAAGTTATTAAGGGATCAATAATCGCTCAATATAAATATCTCTCACTTATTTAAA |  |  | 0.0655 | 
29 | ACAGACGAAGGAGCCGCAAAGAAGTTATTAAGGCATGAATAATCACTCAATATAAATATCTCTCACTTATTTAAA |  | 0.118 | 0.0873 | 
30 | ACAGACGAAGGAGCCGCAAAGAAGTTATTCAGGAATGAATAATCCCTCAATATAAATATCTCTCACTTATTTAAA |  | 0.132 | 0.129 | 
31 | CGACATGTCCCGCTTCTTTCATTAATCCTTTAGCAACTGTTTTGCAATATACATTTACCTTTTAAGAGGAGGAAT | 0.453 |  |  | 
32 | CGACATGTCCCGCTTCTTTCATTAATCCGTTAGCAACTGTTTTGCCATATACATATACCTTTTAAGAGGAGGAAT | 0.198 |  |  | 
33 | ACAGACGAAGGAGCCGCACAGAAGTTATTAAAGGATGAATAATCCCTCAATATAAATATCTCTCACTTATTTAAA |  | 0.173 | 0.177 | 
34 | ACAGACGAAGGAGCCGCAAAGAAGTTATTAAGGGATGAATAATTACTCAATATAAATATCTCTCACTTATTTAAA |  | 0.0971 | 0.137 | cleaved RNA product abundance (experiment (reporter, strain, medium): exp 6: tetM reporter, strain 168, cleavage site: cggR-gapA (positions -7 to +36 mutated)): 0.11
35 | CGACATGTCCCGCTTCTTTCATTAATCCGTTATCAACTGTTTTGCTATATACATTTAACTTTTAAGAGGAGGAAT | 0.291 |  |  | 
36 | ACAGACGAAGGAGCCGCAAAGAATTTATTAAAGGATGAAAAATCCCTCAATATAAATATCTCTCACTTATTTAAA |  |  | 0.197 | 
37 | ACAGACGAAGGAGCCGCAAAGAAGTTATTAATGGATGAATAATCCCTCAATATTAATATCTCTCACTTATTTAAA |  |  | 0.0604 | 
38 | ACAGACGAAGGAGCCGCAAAGAAGTTAATAAGGGATGAATGATCCCTCAATATAAATATCTCTCACTTATTTAAA |  |  | 0.284 | 
39 | CGACATGTCCCGCTTCTTTCATTAATCCGTTAGCAACTGTTTTCCTATATACATTTATCTTTTAAGAGGAGGAAT | 0.55 |  |  | 
40 | ACAGACGAAGGAGCCGCAAAGAAGTTATTAAAGGATGAATAATCCCTCAATATAAAAATCTCTCACTTATTTAAA |  | 0.147 | 0.244 | 
41 | ACAGACGAAGGAGCCGCAAACAAGTTATTAAAGGATGAATAATCCCTCATTATAAATATCTCTCACTTATTTAAA |  |  | 0.115 | 
42 | ACAGACGAAGGAGCCGCAAAGAAGTTATTATGGGATGAATAATCTCTCAATATAAATATCTCTCACTTATTTAAA |  | 0.224 | 0.285 | 
43 | ACAGACGAAGGAGCCGCAAATAAGTTATTAAGGGATGAATTATCCCTCAATATAAATATCTCTCACTTATTTAAA |  | 0.711 | 0.737 | 
44 | CGACATGTCCCGCTTCTTTCATTAATCAGTTAGCTACTGTTTTGCTATATACATTTACCTTTTAAGAGGAGGAAT | 0.423 |  |  | 
45 | CGACATGTCCCGCTTCTTTCATTAATCCGTTAGCAACTGTTTTACTATATACAATTACCTTTTAAGAGGAGGAAT | 0.613 |  |  | 
46 | CGACATGTCCCGCTTCTTTCATTAATCCGTTAACAACTGTATTGCTATATACATTTACCTTTTAAGAGGAGGAAT | 0.316 |  |  | 

Source: the supplement of paper PMC11780869
